Results on two substances are retold here after PMC7497807.

Among the targets are FITC-CBX8 A335V peptide; BCOR (aa 1176–1225)-FITC (UniProt Q6W2J9); MBP-AF9.
Holding throughout (assay): fluorescence polarisation

Sequence of BCOR (aa 1176–1225)-FITC (Q6W2J9 1176-1225): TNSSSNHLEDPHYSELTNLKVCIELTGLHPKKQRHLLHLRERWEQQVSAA

What is called Kd is the equilibrium constant for the complex coming apart. Read a high Kd as a looser complex. As to MBP-AF9 (domain or fragment), the Kd in the experiment with FITC-CBX8 A335V peptide was 0.012 µM; in the experiment with BCOR (aa 1176–1225)-FITC it was 0.018 µM.
The IC50 is the concentration needed to halve the response being measured. A higher IC50 goes with lower potency. The substance unlabeled CBX8 A335V peptide came in with a concentration for half-maximal inhibition (IC50) in the experiment with MBP-AF9 of 0.096 µM.
